From IntAct's records for PubMed 32873725

B1: Phospholamban (Mus musculus), P61014 (parent)
chain: MEKVQYLTRSAIRRASTIEMPQQARQNLQNLFINFCLILICLLLICIIVMLL

Variants of: B1
Details: with kcc2d_human CAMK2D

Row | effect of a mutation on the interaction | Variant
1 | with no effect | MEKVQYLTRSAIRRAATIEMPQQARQNLQNLFINFCLILICLLLICIIVMLL
